Reference: the supplement of paper PMC10567573

B1: RHOBTB2 (parent)
chain: NQEITKAFHVRRTNRVKECLAKGT

Variants of: B1
Assay: protein stability index of a GFP-peptide fusion (GPS, HEK-293T) (PSI 1-6); higher = more stable
Conditions: c terminus: a fixed tail appended
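Also: lentivirally expressed fusions sorted by FACS into six bins by GFP to DsRed ratio, PSI derived from sequencing read proportions per bin multiplied by bin number.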

Variant	protein stability index
NQEITKAFHVRRQNRVKECLAKGT	3.93
NQEITKAFHVRRSNRVKECLAKGT	3.96
NQEITKAFHVRRWNRVKECLAKGT	2.02
NQEITKAFHVRRYNRVKECLAKGT	1.78
NQEITKAFHVRRTARVKECLAKGT	4.05
NQEITKAFHVRRTCRVKECLAKGT	1.88
NQEITKAFHVRRTDRVKECLAKGT	3.82
NQEITKAFHVRRTERVKECLAKGT	4.4
NQEITKAFHVRRTFRVKECLAKGT	2.15
NQEITKAFHVRRTGRVKECLAKGT	3.17
NQEITKAFHVRRTHRVKECLAKGT	3.43
NQEITKAFHVRRTIRVKECLAKGT	3.58
NQEITKAFHVRRTKRVKECLAKGT	3.15
NQEITKAFHVRRTLRVKECLAKGT	3.09
NQEITKAFHVRRTMRVKECLAKGT	2.54
NQEITKAFHVRRTPRVKECLAKGT	3.38
NQEITKAFHVRRTQRVKECLAKGT	3.09
NQEITKAFHVRRTRRVKECLAKGT	2.97
NQEITKAFHVRRTSRVKECLAKGT	2.48
NQEITKAFHVRRTTRVKECLAKGT	2.95
NQEITKAFHVRRTVRVKECLAKGT	2.83
NQEITKAFHVRRTWRVKECLAKGT	2.15
NQEITKAFHVRRTYRVKECLAKGT	1.82
NQEITKAFHVRRTNAVKECLAKGT	3.66

Variant	protein stability index
NQEITKAFHVRRTNCVKECLAKGT	3.27
NQEITKAFHVRRTNDVKECLAKGT	4.21
NQEITKAFHVRRTNFVKECLAKGT	2.84
NQEITKAFHVRRTNGVKECLAKGT	2.9
NQEITKAFHVRRTNIVKECLAKGT	3.12
NQEITKAFHVRRTNKVKECLAKGT	3.29
NQEITKAFHVRRTNLVKECLAKGT	3.36
NQEITKAFHVRRTNMVKECLAKGT	3.78
NQEITKAFHVRRTNNVKECLAKGT	3.48
NQEITKAFHVRRTNPVKECLAKGT	3.29
NQEITKAFHVRRTNQVKECLAKGT	3.87
NQEITKAFHVRRTNSVKECLAKGT	3.54
NQEITKAFHVRRTNTVKECLAKGT	3.87
NQEITKAFHVRRTNVVKECLAKGT	3.73
NQEITKAFHVRRTNWVKECLAKGT	2.58
NQEITKAFHVRRTNYVKECLAKGT	2.86
NQEITKAFHVRRTNRAKECLAKGT	2.78
NQEITKAFHVRRTNRCKECLAKGT	2.51
NQEITKAFHVRRTNRDKECLAKGT	4.7
NQEITKAFHVRRTNREKECLAKGT	3.45
NQEITKAFHVRRTNRFKECLAKGT	2.48
NQEITKAFHVRRTNRHKECLAKGT	2.88
NQEITKAFHVRRTNRIKECLAKGT	2.91
NQEITKAFHVRRTNRKKECLAKGT	3.41

Variant	protein stability index
NQEITKAFHVRRTNRLKECLAKGT	3.92
NQEITKAFHVRRTNRMKECLAKGT	2.8
NQEITKAFHVRRTNRNKECLAKGT	3.41
NQEITKAFHVRRTNRPKECLAKGT	4.09
NQEITKAFHVRRTNRQKECLAKGT	2.79
NQEITKAFHVRRTNRRKECLAKGT	3.21
NQEITKAFHVRRTNRSKECLAKGT	2.95
NQEITKAFHVRRTNRTKECLAKGT	3.02
NQEITKAFHVRRTNRWKECLAKGT	3.4
NQEITKAFHVRRTNRYKECLAKGT	1.97
NQEITKAFHVRRTNRVCECLAKGT	2.22
NQEITKAFHVRRTNRVDECLAKGT	3.64
NQEITKAFHVRRTNRVEECLAKGT	3.04
NQEITKAFHVRRTNRVFECLAKGT	2.06
NQEITKAFHVRRTNRVGECLAKGT	2.74
NQEITKAFHVRRTNRVHECLAKGT	2.94
NQEITKAFHVRRTNRVIECLAKGT	1.75
NQEITKAFHVRRTNRVLECLAKGT	3.12
NQEITKAFHVRRTNRVMECLAKGT	2.54
NQEITKAFHVRRTNRVNECLAKGT	2.92
NQEITKAFHVRRTNRVPECLAKGT	2.4
NQEITKAFHVRRTNRVQECLAKGT	2.55
NQEITKAFHVRRTNRVRECLAKGT	2.47
NQEITKAFHVRRTNRVSECLAKGT	3.63

Variant	protein stability index
NQEITKAFHVRRTNRVTECLAKGT	3.15
NQEITKAFHVRRTNRVVECLAKGT	2.26
NQEITKAFHVRRTNRVWECLAKGT	2.3
NQEITKAFHVRRTNRVYECLAKGT	2.36
NQEITKAFHVRRTNRVKACLAKGT	3.08
NQEITKAFHVRRTNRVKDCLAKGT	3.47
NQEITKAFHVRRTNRVKFCLAKGT	2.59
NQEITKAFHVRRTNRVKGCLAKGT	2.88
NQEITKAFHVRRTNRVKHCLAKGT	2.58
NQEITKAFHVRRTNRVKICLAKGT	1.94
NQEITKAFHVRRTNRVKKCLAKGT	3.08
NQEITKAFHVRRTNRVKLCLAKGT	2.83
NQEITKAFHVRRTNRVKMCLAKGT	2.75
NQEITKAFHVRRTNRVKNCLAKGT	2.92
NQEITKAFHVRRTNRVKPCLAKGT	2.59
NQEITKAFHVRRTNRVKQCLAKGT	2.87
NQEITKAFHVRRTNRVKRCLAKGT	2.74
NQEITKAFHVRRTNRVKSCLAKGT	2.59
NQEITKAFHVRRTNRVKTCLAKGT	3.93
NQEITKAFHVRRTNRVKVCLAKGT	3.4
NQEITKAFHVRRTNRVKWCLAKGT	2.23
NQEITKAFHVRRTNRVKYCLAKGT	2.67
